Test results reported in patent publication US20230363418A1, “COMPOSITION FOR PREVENTING OR TREATING NEUROPSYCHOLOGIC DISEASE, COMPRISING MANF” (CEFO CO., LTD., priority 2020, published 2023).

How the values were obtained:
[1] = test system: IBO-administered memory impairment and autism model; test: Open space behavior test (anxiety behavior); assay type: in vivo, rat
Method: Memory impairment and autism models were prepared by administering IBO to the entorhinal cortex of the rats, wherein the IBO destroys granule cells of the dentate gyrus (DG) and pyramidal cells of the hippocampus, which receive nerve signals input from the entorhinal cortex. Specifically, the rats were anesthetized with equitensin (10% ethanol containing 350 mM pentobarbital sodium, 250 mM chloral hydrate, 85 mM MgSO and 40% propylene glycol). The incisor bar of a stereotaxic device (Stoelting Co., U.S.A.) was placed 3.4 mm below the interaural line, and the injection needle angle was fixed at […] right from the center of the sagittal plane. 1.5 ul of IBO (1 mg/ml) was injected into the entorhinal cortex of the rat using the stereotaxic device. The IBO was injected into three locations of first, AP: -8.4, ML: -4.8, DV: -4.6; Second, AP; -8.4, ML: -4.8, DV: […]; Third, AP: -8.8, ML: - 3.65, DV: -3.4 (FIG. 7).
After 2-3 IBO injections, each group was randomly classified into an IBO-administrated group (negative control group), and a GFP-AAV-hMSC-administrated group (GFP-AAV) and a MANF-AAV-hMSC-administrated group […] as a control group. A rest period of one week was provided. […]

[2] = test system: proliferating neural progenitor cells; test: Immunoblotting of Sox2 and DCX in proliferating neural progenitor cells; assay type: cell-based, rat; settings: MANF 20 ng/ml, proliferation condition
Method: (§1) Specifically, hippocampal-derived neural stem cells were isolated from the brain of E16 rat embryos. Hippocampal ridges were minced from the embryonic forebrains of E16 rats using sterile fine tweezers under a dissecting microscope. The tissues were collected, mechanically separated using a pipette in Ca^2+/Mg^2+-freeHBSS (Invitrogen) solution, and planted at 19,000 cells/cm^2 in 35 mm culture dishes precoated with 15 µg/ml poly-L-ornithine and 1 µg/ml fibronectin (Sigma). The cells were cultured under the condition of 5% CO2 for 3 days using a serum-free N2 medium (medium for proliferation) supplemented with 10 ng/mL basic fibroblast growth factor(bFGF, Invitrogen). Thereafter, the cells were removed using 0.05% trypsin/EDTA (ethylene-diamine-tetraacetic acid), and neural progenitor cells were planted on a 12 mm glass coverglass (Belco) for immunostaining and on a 100 mm dish for immunoblotting and cultured in N2 medium for proliferation containing bFGF for 1 day. Thereafter, in the proliferation condition, the medium continuously containing bFGF was treated with MANF at the indicated concentration and cultured for 2-3 days; and in the differentiation condition, MANF was added to the medium for differentiation not containing bFGF, which was cultured for 3-7 days. In the control group (vehicle), physiological saline was added in the same volume instead of MANF.

[3] = test system: hippocampal-derived neural stem cells; test: Immunoblotting of differentiation markers (NeuN, GAD65/67, vGAT) in differentiating neural progenitor cells; assay type: cell-based, rat
Method: To determine the optimal dose of MANF to promote the expression of differentiation markers in neural progenitor cells, immunoblotting experiments were performed using NeuN antibody that labels the nuclei of mature neurons, glutamic acid decarboxylase (GAD65/67) and vesicular […] (vGAT) that label GABAergic nerve cells.
as §1
After 3-7 days of differentiation of the cultured neural stem cells, the medium was removed and washed once with PBS (Phosphate-buffered saline). Then, all the cells were lysed using a lysis buffer to which a protease inhibitor was added. The lysate was loaded in a 10% gel in the same volume, then transferred to a PVDF (Polyvinylidene Fluoride) membrane and blocked with 2% BSA in TBST or 5% skim milk in TBST at room temperature for 1 hour. As primary antibodies, rb-GAD65/67 (1:1000), mo-NeuN (1:1000), mo-Vgat (1:700), and mo-actin (1:2000) were used, and the primary antibodies were diluted with 2% BSA in TBST, reacted at 4° C. for 16 hours, and then washed with […]. As secondary antibodies, mo-HRP (1:5000) and rb-HRP (1:5000) were used, and the secondary antibodies were diluted in 2% skim milk in TBST or 2% BSA in TBST, reacted for 1 hour, and then developed on films. As control antibodies, mo-tubulin (Millipore, 05-661, 1:2000) and mo-actin (Santa cruz, SC-47778, 1:2000) were used.

[4] = MANF at 30 ng (tested 10-50 ng/ml), differentiation condition, vs vehicle

B1: MANF: one of 16 or more growth factors secreted into nerve stem cells by cerebrovascular cells; amino acid sequence of SEQ ID NO: 1 (protein)
chain: MRRMWATQGLAVALALSVLPGSRALRPGDCEVCISYLGRFYQDLKDRDVTFSPATIENELIKFCREARGKENRLCYYIGATDDAATKIINEVSKPLAHHIPVEKICEKLKKKDSQICELKYDKQIDLSTVDLKKLRVKELKKILDDWGETCKGCAEKSDYIRKINELMPKYAPKAASARTDL
modifications: MANF
- time in the center ([1]; compared to the IBO group): significantly increased
- time in the center ([1]; compared to the MSC group): also increased
- DCX immunoblot [2]: significantly increased
- Sox2 immunoblot [2]: significantly increased
- NeuN protein increase (immunoblotting) [3, 4]: 1.6 fold
- amount of GAD65/67 protein increase (immunoblotting) [3, 4]: about 2.5 fold
- amount of vGAT protein increase (immunoblotting) [3, 4]: about 2.5 fold
- optimal dose of MANF (NeuN, GAD65/67 and vGAT protein all increased the most) ([3]; tested 10-50 ng/ml): 30 ng/mL
